# From article PMC5829645
# T1: BmILF (interleukin enhancer binding factor homolog) (Bombyx mori (Bm12 cell cDNA), UniProt A0A1U9WZ16 1-382)
# T1 sequence: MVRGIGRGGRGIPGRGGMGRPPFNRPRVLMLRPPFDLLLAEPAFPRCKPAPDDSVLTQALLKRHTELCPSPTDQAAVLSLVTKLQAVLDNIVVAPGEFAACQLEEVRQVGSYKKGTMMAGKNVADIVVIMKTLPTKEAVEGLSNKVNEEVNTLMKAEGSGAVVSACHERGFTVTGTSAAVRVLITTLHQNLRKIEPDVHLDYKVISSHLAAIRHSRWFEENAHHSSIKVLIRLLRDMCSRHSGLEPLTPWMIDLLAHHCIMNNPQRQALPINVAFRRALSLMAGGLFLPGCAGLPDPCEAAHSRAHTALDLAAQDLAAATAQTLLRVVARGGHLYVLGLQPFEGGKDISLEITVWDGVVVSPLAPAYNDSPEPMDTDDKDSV
# Tests used:
# [1] = target: T1, BmILF (interleukin enhancer binding …); assay: EMSA
# [2] = target: T1, BmILF (interleukin enhancer binding …); assay: EMSA; remark: listed apart in the source
# [3] = target: T1, BmILF (interleukin enhancer binding …); assay: competition
binder,measurement,setting,value
TTGTTGCACTGCTACTCGGCTCACTCGCGCATCGCACTGG (ssDNA) [BmPOUM2 i-motif mutant probe],binding result,[1],no binding
TTGTTGCCCCGCCCCTCGGCCCCCTCGCGCCCCGCACTGG (structured_DNA) [BmPOUM2 i-motif wild-type probe],binding result,[2],binds
TTGTTGCCCCGCCCCTCGGCCCCCTCGCGCCCCGCACTGG (structured_DNA) [unlabeled wild-type i-motif cold probe],binding result,[3],binds
